# PMC4304825, “Six Amino Acid Residues in a 1200 Å2 Interface Mediate Binding of Factor VIII to an IgG4κ Inhibitory Antibody” (PLoS ONE, 2015)
# Biological target: T1, von Willebrand factor (VWF) (UniProt P04275 764-2813)
# T1 construct: von Willebrand factor; Immobilised by amine coupling
# Test: SPR; VWF attached to a CM4 chip by amine coupling at low density (200 RUs); BDD-FVIII proteins injected in a 3-fold concentration series from 0.22-18 nM, single-cycle kinetics; fit to a 1:1 model; Biacore T200
# Settings: both partners purified
Kd,koff,kon,Binder
0.29 nM,0.00069 s⁻¹,2.4e+06 M⁻¹ s⁻¹,WT-BDD-FVIII (wild-type B-domain-deleted factor VIII) (natural protein) chain 1: ATRRYYLGAVELSWDYMQSDLGELPVDARFPPRVPKSFPFNTSVVYKKTLFVEFTDHLFNIAKPRPPWMGLLGPTIQAEVYDTVVITLKNMASHPVSLHAVGVSYWKASEGAEYDDQTSQREKEDDKVFPGGSHTYVWQVLKENGPMASDPLCLTYSYLSHVDLVKDLNSGLIGALLVCREGSLAKEKTQTLHKFILLFAVFDEGKSWHSETKNSLMQDRDAASARAWPKMHTVNGYVNRSLPGLIGCHRKSVYWHVIGMGTTPEVHSIFLEGHTFLVRNHRQASLEISPITFLTAQTLLMDLGQFLLFCHISSHQHDGMEAYVKVDSCPEEPQLRMKNNEEAEDYDDDLTDSEMDVVRFDDDNSPSFIQIRSVAKKHPKTWVHYIAAEEEDWDYAPLVLAPDDRSYKSQYLNNGPQRIGRKYKKVRFMAYTDETFKTREAIQHESGILGPLLYGEVGDTLLIIFKNQASRPYNIYPHGITDVRPLYSRRLPKGVKHLKDFPILPGEIFKYKWTVTVEDGPTKSDPRCLTRYYSSFVNMERDLASGLIGPLLICYKESVDQRGNQIMSDKRNVILFSVFDENRSWYLTENIQRFLPNPAGVQLEDPEFQASNIMHSINGYVFDSLQLSVCLHEVAYWYILSIGAQTDFLSVFFSGYTFKHKMVYEDTLTLFPFSGETVFMSMENPGLWILGCHNSDFRNRGMTALLKVSSCDKNTGDYYEDSYEDISAYLLSKNNAIEPR chain 2: EITRTTLQSDQEEIDYDDTISVEMKKEDFDIYDEDENQSPRSFQKKTRHYFIAAVERLWDYGMSSSPHVLRNRAQSGSVPQFKKVVFQEFTDGSFTQPLYRGELNEHLGLLGPYIRAEVEDNIMVTFRNQASRPYSFYSSLISYEEDQRQGAEPRKNFVKPNETKTYFWKVQHHMAPTKDEFDCKAWAYFSDVDLEKDVHSGLIGPLLVCHTNTLNPAHGRQVTVQEFALFFTIFDETKSWYFTENMERNCRAPCNIQMEDPTFKENYRFHAINGYIMDTLPGLVMAQDQRIRWYLLSMGSNENIHSIHFSGHVFTVRKKEEYKMALYNLYPGVFETVEMLPSKAGIWRVECLIGEHLHAGMSTLFLVYSNKCQTPLGMASGHIRDFQITASGQYGQWAPKLARLHYSGSINAWSTKEPFSWIKVDLLAPMIIHGIKTQGARQKFSSLYISQFIIMYSLDGKKWQTYRGNSTGTLMVFFGNVDSSGIKHNIFNPPIIARYIRLHPTHYSIRSTLRMELMGCDLNSCSMPLGMESKAISDAQITASSYFTNMFATWSPSKARLHLQGRSNAWRPQVNNPKEWLQVDFQKTMKVTGVTTQGVKSLLTSMYVKEFLISSSQDGHQWTLFFQNGKVKVFQGNQDSFTPVVNSLDPPLLTRYLRIHPQSWVHQIALRMEVLGCEAQDLY
0.25 nM,0.00067 s⁻¹,2.7e+06 M⁻¹ s⁻¹,BDD-FVIII-M2199A (natural protein) chain 1: ATRRYYLGAVELSWDYMQSDLGELPVDARFPPRVPKSFPFNTSVVYKKTLFVEFTDHLFNIAKPRPPWMGLLGPTIQAEVYDTVVITLKNMASHPVSLHAVGVSYWKASEGAEYDDQTSQREKEDDKVFPGGSHTYVWQVLKENGPMASDPLCLTYSYLSHVDLVKDLNSGLIGALLVCREGSLAKEKTQTLHKFILLFAVFDEGKSWHSETKNSLMQDRDAASARAWPKMHTVNGYVNRSLPGLIGCHRKSVYWHVIGMGTTPEVHSIFLEGHTFLVRNHRQASLEISPITFLTAQTLLMDLGQFLLFCHISSHQHDGMEAYVKVDSCPEEPQLRMKNNEEAEDYDDDLTDSEMDVVRFDDDNSPSFIQIRSVAKKHPKTWVHYIAAEEEDWDYAPLVLAPDDRSYKSQYLNNGPQRIGRKYKKVRFMAYTDETFKTREAIQHESGILGPLLYGEVGDTLLIIFKNQASRPYNIYPHGITDVRPLYSRRLPKGVKHLKDFPILPGEIFKYKWTVTVEDGPTKSDPRCLTRYYSSFVNMERDLASGLIGPLLICYKESVDQRGNQIMSDKRNVILFSVFDENRSWYLTENIQRFLPNPAGVQLEDPEFQASNIMHSINGYVFDSLQLSVCLHEVAYWYILSIGAQTDFLSVFFSGYTFKHKMVYEDTLTLFPFSGETVFMSMENPGLWILGCHNSDFRNRGMTALLKVSSCDKNTGDYYEDSYEDISAYLLSKNNAIEPR chain 2: EITRTTLQSDQEEIDYDDTISVEMKKEDFDIYDEDENQSPRSFQKKTRHYFIAAVERLWDYGMSSSPHVLRNRAQSGSVPQFKKVVFQEFTDGSFTQPLYRGELNEHLGLLGPYIRAEVEDNIMVTFRNQASRPYSFYSSLISYEEDQRQGAEPRKNFVKPNETKTYFWKVQHHMAPTKDEFDCKAWAYFSDVDLEKDVHSGLIGPLLVCHTNTLNPAHGRQVTVQEFALFFTIFDETKSWYFTENMERNCRAPCNIQMEDPTFKENYRFHAINGYIMDTLPGLVMAQDQRIRWYLLSMGSNENIHSIHFSGHVFTVRKKEEYKMALYNLYPGVFETVEMLPSKAGIWRVECLIGEHLHAGMSTLFLVYSNKCQTPLGMASGHIRDFQITASGQYGQWAPKLARLHYSGSINAWSTKEPFSWIKVDLLAPMIIHGIKTQGARQKFSSLYISQFIIMYSLDGKKWQTYRGNSTGTLMVFFGNVDSSGIKHNIFNPPIIARYIRLHPTHYSIRSTLRMELMGCDLNSCSMPLGMESKAISDAQITASSYFTNAFATWSPSKARLHLQGRSNAWRPQVNNPKEWLQVDFQKTMKVTGVTTQGVKSLLTSMYVKEFLISSSQDGHQWTLFFQNGKVKVFQGNQDSFTPVVNSLDPPLLTRYLRIHPQSWVHQIALRMEVLGCEAQDLY
0.2 nM,0.00054 s⁻¹,2.9e+06 M⁻¹ s⁻¹,BDD-FVIII-F2196K (natural protein) chain 1: ATRRYYLGAVELSWDYMQSDLGELPVDARFPPRVPKSFPFNTSVVYKKTLFVEFTDHLFNIAKPRPPWMGLLGPTIQAEVYDTVVITLKNMASHPVSLHAVGVSYWKASEGAEYDDQTSQREKEDDKVFPGGSHTYVWQVLKENGPMASDPLCLTYSYLSHVDLVKDLNSGLIGALLVCREGSLAKEKTQTLHKFILLFAVFDEGKSWHSETKNSLMQDRDAASARAWPKMHTVNGYVNRSLPGLIGCHRKSVYWHVIGMGTTPEVHSIFLEGHTFLVRNHRQASLEISPITFLTAQTLLMDLGQFLLFCHISSHQHDGMEAYVKVDSCPEEPQLRMKNNEEAEDYDDDLTDSEMDVVRFDDDNSPSFIQIRSVAKKHPKTWVHYIAAEEEDWDYAPLVLAPDDRSYKSQYLNNGPQRIGRKYKKVRFMAYTDETFKTREAIQHESGILGPLLYGEVGDTLLIIFKNQASRPYNIYPHGITDVRPLYSRRLPKGVKHLKDFPILPGEIFKYKWTVTVEDGPTKSDPRCLTRYYSSFVNMERDLASGLIGPLLICYKESVDQRGNQIMSDKRNVILFSVFDENRSWYLTENIQRFLPNPAGVQLEDPEFQASNIMHSINGYVFDSLQLSVCLHEVAYWYILSIGAQTDFLSVFFSGYTFKHKMVYEDTLTLFPFSGETVFMSMENPGLWILGCHNSDFRNRGMTALLKVSSCDKNTGDYYEDSYEDISAYLLSKNNAIEPR chain 2: EITRTTLQSDQEEIDYDDTISVEMKKEDFDIYDEDENQSPRSFQKKTRHYFIAAVERLWDYGMSSSPHVLRNRAQSGSVPQFKKVVFQEFTDGSFTQPLYRGELNEHLGLLGPYIRAEVEDNIMVTFRNQASRPYSFYSSLISYEEDQRQGAEPRKNFVKPNETKTYFWKVQHHMAPTKDEFDCKAWAYFSDVDLEKDVHSGLIGPLLVCHTNTLNPAHGRQVTVQEFALFFTIFDETKSWYFTENMERNCRAPCNIQMEDPTFKENYRFHAINGYIMDTLPGLVMAQDQRIRWYLLSMGSNENIHSIHFSGHVFTVRKKEEYKMALYNLYPGVFETVEMLPSKAGIWRVECLIGEHLHAGMSTLFLVYSNKCQTPLGMASGHIRDFQITASGQYGQWAPKLARLHYSGSINAWSTKEPFSWIKVDLLAPMIIHGIKTQGARQKFSSLYISQFIIMYSLDGKKWQTYRGNSTGTLMVFFGNVDSSGIKHNIFNPPIIARYIRLHPTHYSIRSTLRMELMGCDLNSCSMPLGMESKAISDAQITASSYKTNMFATWSPSKARLHLQGRSNAWRPQVNNPKEWLQVDFQKTMKVTGVTTQGVKSLLTSMYVKEFLISSSQDGHQWTLFFQNGKVKVFQGNQDSFTPVVNSLDPPLLTRYLRIHPQSWVHQIALRMEVLGCEAQDLY
